Laboratory results from the supplement of paper PMC10126150.
± gives the standard deviation of the averaged measurements.

The sequences below were run on ATP (assay: switch fluorescence ratio, 500 uM ATP over buffer (Cy3 cluster intensity, sum of 5 cycles each) (fold (ratio)); higher = stronger signal-on switching upon ATP binding; sequences stand for … in TCGTCGGCAGCGTCAGATGTGTATAAGAGACAGTTTTTTTTTTTTTTTTTTTTTTTTT…TC). Settings: aptamer strand: ATP DNA aptamer (quencher-CACCTGGGGGAGTATTGCGGAGGAAGG + anchor), 100 nM annealed; ATP concentration: 500 uM.
In short: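 Between each of five buffer/ATP cycles, the flow-cell was stripped with NaOH and re-annealed. Each cycle imaged Cy3-labelled switching-strand clusters, annealed to 100 nM quencher-labelled ATP aptamer on a modified Illumina MiSeq flow-cell, first in selection buffer and then after 15 min with 500 uM ATP at 22 °C. The fluorescence ratio is summed target-cycle over summed buffer-cycle Cy3 intensity per cluster, averaged per switch-domain sequence, with clusters outside 100-1000 RFU excluded.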
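Note: ATP exposure 15 min at 22 °C before imaging.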

| Sequence | switch fluorescence ratio |
| --- | --- |
| AGATCGTTGT | 0.978 ± 0.028 |
| AGATCTTCGG | 1.001 ± 0.0076 |
| AGATGAATGT | 0.987 ± 0.015 |
| AGATGAGGAA | 1.004 ± 0.01 |
| AGATGAGGGA | 1.02 ± 0.032 |
| AGATGATTGG | 0.985 ± 0.023 |
| AGATGCAGCT | 0.976 ± 0.033 |
| AGATGCCAGG | 1.1 ± 0.031 |
| AGATGCTTAT | 0.979 ± 0.019 |
| AGATGGATTT | 0.963 ± 0.0091 |
| AGATGGCGCT | 0.967 ± 0.029 |
| AGATGGGCAG | 0.996 ± 0.012 |
| AGATGGGTAC | 1.03 ± 0.029 |
| AGATGGTCAA | 0.967 ± 0.02 |
| AGATGTATAG | 1.034 ± 0.009 |
| AGATGTCCTT | 1.02 ± 0.037 |
| AGATGTCTGG | 0.9897 ± 0.0063 |
| AGATGTGGTT | 0.9922 ± 0.0041 |
| AGATGTTGAA | 0.979 ± 0.023 |
| AGATGTTTGT | 1.01 ± 0.038 |
| AGATTAAGTA | 0.989 ± 0.024 |
| AGATTAATTG | 0.994 ± 0.008 |
| AGATTAATTT | 0.986 ± 0.021 |
| AGATTACTGC | 1.01 ± 0.023 |
| AGATTAGGCA | 0.992 ± 0.013 |

| Sequence | switch fluorescence ratio |
| --- | --- |
| AGATTCTGGG | 0.971 ± 0.016 |
| AGATTCTGTA | 0.97 ± 0.011 |
| AGATTGAGCG | 1 ± 0.019 |
| AGATTGATCG | 1.02 ± 0.015 |
| AGATTGATGC | 1.03 ± 0.03 |
| AGATTGCATG | 1.029 ± 0.0077 |
| AGATTGCCGG | 0.97 ± 0.034 |
| AGATTGGACG | 1.02 ± 0.024 |
| AGATTGGGGA | 1.01 ± 0.013 |
| AGATTGGGTA | 1.01 ± 0.024 |
| AGATTGGGTT | 0.967 ± 0.024 |
| AGATTGTGCT | 0.975 ± 0.046 |
| AGATTTACTT | 0.985 ± 0.014 |
| AGATTTAGTC | 1 ± 0.051 |
| AGATTTGCTA | 1.004 ± 0.0078 |
| AGATTTTTAT | 0.983 ± 0.012 |
| AGCAAATGGT | 1.07 ± 0.051 |
| AGCAACATAA | 1.13 ± 0.022 |
| AGCAACATTA | 1.06 ± 0.025 |
| AGCAACCCCG | 1.22 ± 0.17 |
| AGCAAGGCGT | 1.03 ± 0.043 |
| AGCAAGGGGG | 1.09 ± 0.11 |
| AGCAATGTCT | 1.26 ± 0.065 |
| AGCAATTTTT | 1.1 ± 0.034 |
| AGCACGGGTA | 1.008 ± 0.0055 |

| Sequence | switch fluorescence ratio |
| --- | --- |
| AGCACTGCTG | 1.01 ± 0.014 |
| AGCAGAAGGA | 1.02 ± 0.015 |
| AGCAGCTAAG | 0.995 ± 0.01 |
| AGCAGCTGGG | 1.01 ± 0.012 |
| AGCAGGGGCT | 1.025 ± 0.0069 |
| AGCAGGGGGG | 1.06 ± 0.067 |
| AGCAGGGGTA | 1.17 ± 0.26 |
| AGCAGTTCGG | 1 ± 0.036 |
| AGCATACCTT | 1.11 ± 0.17 |
| AGCATAGCAT | 1.01 ± 0.019 |
| AGCATGGTAT | 1 ± 0.04 |
| AGCCAGTTTT | 0.9892 ± 0.0073 |
| AGCCATTTTG | 1.02 ± 0.022 |
| AGCCCGCGCA | 1.03 ± 0.028 |
| AGCCGAGTTC | 1.01 ± 0.049 |
| AGCCGGATCA | 0.9931 ± 0.0056 |
| AGCCGGGTAG | 1.053 ± 0.0086 |
| AGCCTTATCC | 1.09 ± 0.02 |
| AGCCTTTTTG | 0.992 ± 0.042 |
| AGCGAAATCA | 1 ± 0.078 |
| AGCGAAGATG | 1 ± 0.033 |
| AGCGAAGCTG | 1.01 ± 0.011 |
| AGCGACCGTT | 1.032 ± 0.0078 |
| AGCGACGTTT | 0.9647 ± 0.0064 |
| AGCGAGTGTG | 1 ± 0.026 |

| Sequence | switch fluorescence ratio |
| --- | --- |
| AGCGATAGTC | 1.56 ± 0.024 |
| AGCGATAGTT | 1.1 ± 0.038 |
| AGCGATCGGT | 1.03 ± 0.014 |
| AGCGATGCTT | 1.133 ± 0.011 |
| AGCGATTTAT | 1.03 ± 0.0079 |
| AGCGCGAATG | 1.01 ± 0.018 |
| AGCGCTGCCT | 0.996 ± 0.031 |
| AGCGCTTGTG | 1.02 ± 0.038 |
| AGCGGGGGTT | 0.9996 ± 0.0055 |
| AGCGGGTCCG | 0.987 ± 0.017 |
| AGCGGTCAGT | 0.9776 ± 0.0075 |
| AGCGGTCTGG | 1 ± 0.013 |
| AGCGTAGTCA | 0.9868 ± 0.0021 |
| AGCGTATGTG | 1.02 ± 0.062 |
| AGCGTTAGTG | 1.06 ± 0.013 |
| AGCGTTCTGG | 1.04 ± 0.041 |
| AGCGTTGTG | 1.01 ± 0.044 |
| AGCGTTTTCA | 0.994 ± 0.04 |
| AGCTAAAACG | 1.14 ± 0.19 |
| AGCTACACGT | 1.05 ± 0.014 |
| AGCTACTTTT | 1.022 ± 0.0035 |
| AGCTCTAAGA | 1.02 ± 0.021 |
| AGCTCTGCGA | 1.09 ± 0.039 |
| AGCTGATACG | 1.31 ± 0.0078 |
| AGCTGCATG | 0.997 ± 0.024 |

| Sequence | switch fluorescence ratio |
| --- | --- |
| AGCTGGGGTA | 0.951 ± 0.029 |
| AGCTGGTCGT | 0.97265 ± 0.00075 |
| AGCTGTACTA | 1.21 ± 0.029 |
| AGCTGTAGTA | 1.01 ± 0.011 |
| AGCTGTTTGG | 1 ± 0.015 |
| AGCTTAAGGA | 1.03 ± 0.035 |
| AGCTTAGGTC | 1.03 ± 0.029 |
| AGCTTCGTGG | 0.971 ± 0.019 |
| AGCTTCTTAT | 1.03 ± 0.028 |
| AGCTTGCTAT | 0.97 ± 0.011 |
| AGCTTGGGCG | 0.995 ± 0.11 |
| AGCTTGTGTG | 1.01 ± 0.061 |
| AGCTTTACGG | 1.04 ± 0.019 |
| AGCTTTAGGG | 0.9905 ± 0.0022 |
| AGCTTTATGC | 0.935 ± 0.043 |
| AGCTTTATTT | 1.06 ± 0.12 |
| AGCTTTGTC | 0.989 ± 0.043 |
| AGCTTTGTTT | 1.01 ± 0.013 |
| AGCTTTTGAA | 1.006 ± 0.0026 |
| AGCTTTTTGC | 1.02 ± 0.038 |
| AGGAAACTTA | 0.988 ± 0.0076 |
| AGGAAAGAAT | 0.968 ± 0.056 |
| AGGAAAGATT | 1.01 ± 0.028 |
| AGGAAATAGG | 0.963 ± 0.049 |
| AGGAAATATT | 1.01 ± 0.012 |

| Sequence | switch fluorescence ratio |
| --- | --- |
| AGGAAGGCGG | 1.02 ± 0.035 |
| AGGAAGGGGT | 0.979 ± 0.033 |
| AGGAAGGGTG | 1.04 ± 0.022 |
| AGGAAGGGTT | 1.05 ± 0.12 |
| AGGAAGGTGT | 1.13 ± 0.2 |
| AGGAAGTTGG | 0.97916 ± 0.00082 |
| AGGAATCGTT | 0.9969 ± 0.0072 |
| AGGAATGACT | 1 ± 0.023 |
| AGGAATTCGG | 0.999 ± 0.017 |
| AGGAATTGCT | 1.03 ± 0.018 |
| AGGAATTTGG | 0.978 ± 0.024 |
| AGGACAAAGG | 0.989 ± 0.041 |
| AGGACAGCGC | 1.024 ± 0.008 |
| AGGACAGGGT | 0.972 ± 0.011 |
| AGGACGGAAT | 1.091 ± 0.0016 |
| AGGACGGGCA | 1.05 ± 0.053 |
| AGGACTAAAG | 0.982 ± 0.013 |
| AGGAGAATGT | 1.02 ± 0.011 |
| AGGAGAGGAT | 1.14 ± 0.28 |
| AGGAGATTCA | 0.959 ± 0.041 |
| AGGAGCGTCG | 1.01 ± 0.013 |
| AGGAGCTAGT | 1.01 ± 0.038 |
| AGGAGCTGGT | 1.02 ± 0.012 |
| AGGAGGCTTC | 0.983 ± 0.029 |
| AGGAGGGGGC | 1 ± 0.048 |

| Sequence | switch fluorescence ratio |
| --- | --- |
| AGGAGGGTAA | 1.024 ± 0.0031 |
| AGGAGGGTTA | 1 ± 0.028 |
| AGGAGGTAAA | 1.002 ± 0.0034 |
| AGGAGGTGGG | 0.981 ± 0.017 |
| AGGAGTAGTC | 0.996 ± 0.021 |
| AGGAGTATTA | 0.983 ± 0.018 |
| AGGAGTCGGT | 1.01 ± 0.012 |
| AGGAGTTATT | 1 ± 0.024 |
| AGGAGTTGAA | 0.978 ± 0.016 |
| AGGATAAACT | 1 ± 0.013 |
| AGGATAACCG | 1.028 ± 0.0012 |
| AGGATACGGT | 1.0054 ± 0.00059 |
| AGGATATCAG | 0.991 ± 0.027 |
| AGGATATGGC | 1.09 ± 0.12 |
| AGGATGACAG | 0.998 ± 0.04 |
| AGGATGATGT | 1.01 ± 0.032 |
| AGGATGGACC | 1.01 ± 0.024 |
| AGGATGGAGG | 1.035 ± 0.0019 |
| AGGATGGTTT | 1.002 ± 0.0077 |
| AGGATGTTAT | 1 ± 0.016 |
| AGGATTCGGT | 1.01 ± 0.027 |
| AGGATTGAGT | 1.024 ± 0.0094 |
| AGGCAAATGC | 1.25 ± 0.1 |
| AGGCAACGAA | 1.04 ± 0.039 |
| AGGCAATTGT | 1.026 ± 0.01 |

| Sequence | switch fluorescence ratio |
| --- | --- |
| AGGCAGAGTA | 0.992 ± 0.038 |
| AGGCATATAG | 1.09 ± 0.077 |
| AGGCATTATA | 1.01 ± 0.013 |
| AGGCATTGGG | 1.0154 ± 0.00096 |
| AGGCCACTGA | 1.034 ± 0.0011 |
| AGGCCATAAG | 0.9953 ± 0.0034 |
| AGGCCCGGGA | 0.997 ± 0.013 |
| AGGCGAAGGG | 0.993 ± 0.032 |
| AGGCGGAAGT | 1.014 ± 0.0031 |
| AGGCGGGGGG | 1.02 ± 0.041 |
| AGGCGGGGTG | 1.04 ± 0.024 |
| AGGCGGGTAT | 1.015 ± 0.0028 |
| AGGCGGGTGG | 1.03 ± 0.019 |
| AGGCGTAAAA | 0.985 ± 0.019 |
| AGGCGTATTT | 0.9987 ± 0.0062 |
| AGGCGTTGGG | 1.01 ± 0.015 |
| AGGCTATATT | 0.975 ± 0.01 |
| AGGCTTAAAT | 0.989 ± 0.025 |
| AGGCTTATCG | 1.02 ± 0.024 |
| AGGCTTGATG | 0.972 ± 0.033 |
| AGGGAAAGCG | 0.996 ± 0.044 |
| AGGGAAAGGT | 1.06 ± 0.05 |
| AGGGAAATTT | 0.99 ± 0.014 |
| AGGGAACCGC | 1.016 ± 0.0062 |
| AGGGAACGAT | 0.9693 ± 0.0022 |
